Data published in patent US20250312499A1, “KISSPEPTIN RECEPTOR (KISS1R) TARGETED THERAPEUTICS AND USES THEREOF” (priority 2024, published 2025).
Numbered stars: 1 amine (or outer) side, 2 acyl side, 3 side chain; on linkers, the order of the positions; unused ones are H or OH. Square brackets hold non-standard residues; d marks the D form. * marks the point of attachment. X2 = 4‑amino‑1‑((3-fluoro-4-methylbenzyl)glycyl)piperidine‑4‑carboxylic acid, Cc1ccc(CN(CC(=O)N2CCC(N[*:1])(C(=O)[*:2])CC2)[*:3])cc1F; X7 = 4‑amino‑1‑(N-methylcarbamimidoyl)piperidine‑4‑carboxylic acid, CNC(=N)N1CCC(N[*:1])(C(=O)[*:2])CC1; DOTA = O=C(O)CN1CCN(CC(=O)O)CCN(CC(=O)*)CCN(CC(=O)O)CC1; Ala(9-anthryl) = N[C@@H](Cc1c2ccccc2cc2ccccc12)C(=O)O; Api(1-amidino) = N=C(N)N1CCC(N)(C(=O)O)CC1; d2Nal = N[C@H](Cc1ccc2ccccc2c1)C(=O)O; 4Pal = N[C@@H](Cc1ccncc1)C(=O)O; Nle = CCCC[C@H](N)C(=O)O; Ahx = NCCCCCC(=O)O; azaGly = NNC(=O)O; βAla = NCCC(=O)O

B1: Compound 16 (peptide)
peptide: {DOTA}-[βAla][dN][dN][dK][dE][dN]F[azaGly]L[X2]W-NH2
SMILES: Cc1ccc(CNCC(=O)N2CCC(NC(=O)[C@H](CC(C)C)NC(=O)NNC(=O)[C@H](Cc3ccccc3)NC(=O)[C@@H](CC(N)=O)NC(=O)[C@@H](CCC(=O)O)NC(=O)[C@@H](CCCCN)NC(=O)[C@@H](CC(N)=O)NC(=O)[C@@H](CC(N)=O)NC(=O)CCNC(=O)CN3CCN(CC(=O)O)CCN(CC(=O)O)CCN(CC(=O)O)CC3)(C(=O)N[C@@H](Cc3c[nH]c4ccccc34)C(N)=O)CC2)cc1F
B2: Compound 49 (peptide)
peptide: {DOTA}-F[azaGly]L[X2]W-NH2
SMILES: Cc1ccc(CNCC(=O)N2CCC(NC(=O)[C@H](CC(C)C)NC(=O)NNC(=O)[C@H](Cc3ccccc3)NC(=O)CN3CCN(CC(=O)O)CCN(CC(=O)O)CCN(CC(=O)O)CC3)(C(=O)N[C@@H](Cc3c[nH]c4ccccc34)C(N)=O)CC2)cc1F
B3: Compound 3 (peptide)
peptide: {DOTA-Ahx}-FGL[Api(1-amidino)]W-NH2
SMILES: CC(C)C[C@H](NC(=O)CNC(=O)[C@H](Cc1ccccc1)NC(=O)CCCCCNC(=O)CN1CCN(CC(=O)O)CCN(CC(=O)O)CCN(CC(=O)O)CC1)C(=O)NC1(C(=O)N[C@@H](Cc2c[nH]c3ccccc23)C(N)=O)CCN(C(=N)N)CC1
B4: Compound 319 (peptide)
peptide: {DOTA-Ahx}-[dY][d2Nal]NTF[azaGly]L[X7][dW]-NH2
SMILES: CNC(=N)N1CCC(NC(=O)[C@H](CC(C)C)NC(=O)NNC(=O)[C@H](Cc2ccccc2)NC(=O)[C@@H](NC(=O)[C@H](CC(N)=O)NC(=O)[C@@H](Cc2ccc3ccccc3c2)NC(=O)[C@@H](Cc2ccc(O)cc2)NC(=O)CCCCCNC(=O)CN2CCN(CC(=O)O)CCN(CC(=O)O)CCN(CC(=O)O)CC2)[C@@H](C)O)(C(=O)N[C@H](Cc2c[nH]c3ccccc23)C(N)=O)CC1
B5: Compound 123 (peptide)
peptide: {DOTA}-[dY][Ala(9-anthryl)]NTF[azaGly][Nle][Api(1-amidino)][4Pal]-NH2
SMILES: CCCC[C@H](NC(=O)NNC(=O)[C@H](Cc1ccccc1)NC(=O)[C@@H](NC(=O)[C@H](CC(N)=O)NC(=O)[C@H](Cc1c2ccccc2cc2ccccc12)NC(=O)[C@@H](Cc1ccc(O)cc1)NC(=O)CN1CCN(CC(=O)O)CCN(CC(=O)O)CCN(CC(=O)O)CC1)[C@@H](C)O)C(=O)NC1(C(=O)N[C@@H](Cc2ccncc2)C(N)=O)CCN(C(=N)N)CC1

Target: human kisspeptin receptor (KISS1R) (human), Q969F8
Assay: radioligand competition, hKISS1R membranes; legend: C is >100 nM

human kisspeptin receptor (KISS1R) (human), Q969F8, sequence (Q969F8 whole entry): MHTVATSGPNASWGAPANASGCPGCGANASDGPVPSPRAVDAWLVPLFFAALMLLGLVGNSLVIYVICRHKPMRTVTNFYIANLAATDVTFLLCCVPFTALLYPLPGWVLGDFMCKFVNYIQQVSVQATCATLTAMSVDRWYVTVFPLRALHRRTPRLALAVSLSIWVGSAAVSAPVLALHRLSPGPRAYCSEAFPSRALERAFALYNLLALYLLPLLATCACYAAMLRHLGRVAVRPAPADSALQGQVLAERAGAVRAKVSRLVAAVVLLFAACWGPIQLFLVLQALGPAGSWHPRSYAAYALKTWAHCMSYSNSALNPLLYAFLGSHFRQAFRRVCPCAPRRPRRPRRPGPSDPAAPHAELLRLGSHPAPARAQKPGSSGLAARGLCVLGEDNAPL

Ki, > 100 nM:
B1
B2
B3

Target: human kisspeptin receptor (KISS1R) (human) (UniProt Q969F8)
Assay: as above

human kisspeptin receptor (KISS1R) (human), sequence (Q969F8 whole entry): as above

Ki, > 100 nM:
B4
{DOTA-Ahx}-[dY][d2Nal]NTF[azaGly]L[4‑amino‑1‑((pyridin-4-ylmethyl)glycyl)piperidine‑4‑carboxylic acid][dW]-NH2 [Compound 370]
{DOTA-Ahx}-[dY][d2Nal]NTF[azaGly]L[4‑amino‑1‑(((tetrahydro-2H-thiopyran-4-yl)methyl)glycyl)piperidine‑4‑carboxylic acid][dW]-NH2 [Compound 375]
B5
